In the nanobody polyreactivity screen of Harvey et al. (2022):

Experiment: yeast display, Sf9 membrane polyspecificity reagent, FACS + sequencing; frameworks hold sequencing errors
Summary of the method: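 Genes from sorted yeast were amplified by colony PCR, read by MiSeq 2 × 250 sequencing and filtered on CDR length. These cells carried a synthetic nanobody library in Saccharomyces cerevisiae BJ5465 and were sorted by FACS into low and high (top ~1%) gates on anti-HA and streptavidin fluorescence. Polyreactivity is labelled according to the gate of origin.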

Row | Sequence | polyreactivity (PSR sort gate)
1 | QVQLVESGGGLVQAGGSLRLSCAASGRTLPSYSMGCYREAPGKERELFAAITGSGGRTYYADSVKGRFTISRDNAKNSVYLQMNSLKPEDTAVYYCNAYSRTWYARSYYYWGQGTQVTVSS | high polyreactivity
2 | QVQLVESGGGLVQAGGSLRLSCAASGRTITFNTMGWYRQAPGKERELVAGIDRGGSTNYADSVKGRFTISRDNAKNTVYLQMNSLKPEDTAVYYCAKRWTGLGGYYYWGQGTQVTVSS | high polyreactivity
3 | QVQLVESGGGLVPAGGSLRLSCAASGRTLYGYAMGWYRQAPGKERELVAAISGGGSTYYADSVKGRFTISRDNAKNTVYLQMNSLKPEDTAVYYCARRANFYVRRYYWGQGSQVTVSS | high polyreactivity
4 | QVQRVESGGGLVQAGGSLRLSCAASGRIFGKYAMGWYRQAPGKERELVAAIDGSGSTNYADSVKGRFTISRDNAKNTVYLLMNSLKPEDTAVYYCATDHAQKFRYRSPREYWGQGTQVTVSS | low polyreactivity
5 | QVQLVESGGGLVQAGGSLRLSCAASGSIFTWNVKGWYRQAPGKERELVAAISSGGSTNYADSVKGRFTISRDNAKNTVYLQMNSLKPEDTAVYYCATYFRVWYRSYDYWGQGTQVTVSS | high polyreactivity
6 | QVQLVESGGGLVQAGGSLRLSCAASGRILVRNAMGWYRQAPGQERELVAAITRTGASTYYADSVKGRFTISRDNPKNTVYLQMNSLKPEDTAVYYCAAVWGLPYWVYRYDYWGQGNQVTVSS | high polyreactivity
7 | QVQLVESGGGLVQAGGSLRLSCAASGYISYYYAMGWYREAPGKEREFVAGISWSGGSTYYADPVKGRFTISRDNAKNTVYLQMNSLKPEDTAVYDCAARLSRWWPPTGVHYSDRYYGGQGTQVTVSS | high polyreactivity
8 | QVQLVESGGGLVQAGGSLRLSCAASGSTFGPYAMGWYRQAPGKERELVAAISSGGSTYADSVKGRFTISRDNAKNTVYLQMNSLKPEDTAVYYCAKVHGRGVYSVEYDYWVQGTQVTVSS | low polyreactivity
9 | QVQLVESGGGLVQAGGSLRLICAASGSTFGYYTMGWYRQAPGKERELVAAISSGGSRTNYADSVKGRFTISRDNAKNTVYLQMNSLIPEDTAVYYCAAGPVSYVRYGSEYDYWGQGTQVTVSS | high polyreactivity
10 | QVQLVESGGGLVQAGGSLRLSCAASGFTLKYYAMGWYRQAPGKERELVAAITSSGGSTYYADSVKGRFTISRDNAKNTVYLQMNSLKPEDTAVYYCNAVTVYKHGSWGQGTQVTVSS | high polyreactivity
11 | QVQLVESGGGLVQAGGILRLICAASGRTFRYNAMGWYIQAPGKERELVASINSRGDSTYYADSVKGRFTISRDNAKNTVYLQMNSLKPEDTAVYYCNKRIGVGAYYVRYGYWGQGTQVTVSS | high polyreactivity
12 | QVQLVESGGGLVQAGGSLRLSCAASGFTFAKYVMGWYRQAPGKERELVAAISFSGGSTYYADSVKGRFTISRDNAKNTVYLQMNSLKPEDTAVYYCAALSDSRWHRFGYWGQGTQVTVSS | high polyreactivity
13 | KLQLVESGGGLVQAGGSLRLSCADSGRIFQGNAMGWYRQAPGKERELVAAITYSGRSTFYADSVKGRFTISRDNAKNTVYLQMNRLKPEDTAFYYCAARQYWTTDLPFQRYYYWGQGTQVTVSS | low polyreactivity
14 | QVQLVESGGGLVQAGGSLRLSCASSGRTFPGNAMGWYRPAPGKERELVAAISWSGTRTYYADSVKGRFTISRDNAKNTVSLKMNSLKPEDTAVYSCNVVVKGAWDYYPYDYWGQGTQVTVSS | high polyreactivity
15 | QVQLVESGGGLVQAGGSLRLSCAASGSTIVRYAMGWNRQAPGKERELVAAISSRGGCTYYADSVKGRFTISRDNAKNTVYLQMNSLKPEDTAVYYCNADYSVGSWGQGTQVTVSS | high polyreactivity
16 | QVQLVESGGGVVQAGGSLRLSCAASGSTFYPYALGWYRQAPGKERELVAGITVIDGSTYYADSVKGRFTISRDNAKNTVYLQMNSLKPEDTAVYYCAVDAPNQVQEYGYWGQGTQVTVSS | low polyreactivity
17 | QVQLVESGGGLVQAGGSLRLSCAASGFISRNAMGWYRQAPGKERELVAAITRGGSTNYADSVKGRFTISRDNAKNTVYLQMNRLKPEDTAVYYCNKQRQGNSRSYYQTYYGMYYWGQGTQVTVSS | high polyreactivity
18 | QVQLVESGGGLVQAGGSLRLSCAASGRIIATNAMGWNRQAPGKERELVATITRSAGRTYYADSVKGRFTISRDNAKNTVYLHMNSLKPEDTAVYYCAASYWYTEPGYREYDYWGQGTQVTVSS | low polyreactivity
19 | QVQLVESWGGLVQAGGSLSLSCAASGSIFAANAMGWYRQAPGKERELVAAISWSGGSTYADSVKRRFTISRDNEKNTVYLQRNSLKPEDTAVYYCAADLCSQYKFGYCGQGTQVTVSS | low polyreactivity
20 | QVQLVESGGGLVQAGGSLRLSCAASGFTFWIYAMGWYRQAPGKERELVAVISRGGSTYYADSVKGRFTISRDNAKNTVYLQMNSLKPEDTAVYYCNAVGVRGYDYWGQGTQVTVSS | high polyreactivity
21 | QVQLVESGGALVQAGGSLRLSCAASGSIFRYYAMGWYRQAPVKERELVAAIDFSGGRTYYADSVKGRFTISRDNAKNTVYLQMNRLKPEDTAVYDCARKYTTAYGSTFYYWGQGTQVSVSS | high polyreactivity
22 | QVQLVESGGGLVQAGGSLRLSCAASGFTFYQYGMGWYRQAPGKERELVATITSGGRTNYADSVKGRFTISRDNAKNTVYLQMNSLKPEDTAVYYCNKLPYYPRFGRIGRYYYWGQGTQVTVSS | high polyreactivity

Row | Sequence | polyreactivity (PSR sort gate)
23 | QVQLVESGGRLVQARGSLRLSCAASGRIFAYYTLGWYRQAPGKERELVAVISGSGGRTYYADSVKGRFTISRDNAKNTVYLQMNSRKPDDTAVYYCAAYYQGIKYDYWGQGTQVTVSS | high polyreactivity
24 | QVQLVESGGGLVQAGGSLRLSCAASGFIFKKYVMGWYRQAPGKERELVAGISRSGGSTYYADSVKGRFTISRDNAKNTVYLQMNSLKPEDTAVYYCAAYIYQSPTRGGGYWGQGTQVTVSS | high polyreactivity
25 | QVQLVESGVGLVQAGGSLRLSCAASGFTFPYYAMGWYIQAPGKERELVAAISSGGRTNYADSVKGRFTISRDNAKNTVYLQMNSLKPEDTAVYDCATRSYVFAWEFNYWGQVTQVTVSS | high polyreactivity
26 | QLQLVETGGGLVQAGGSLRLSCAASGYIFVYNDMGWSRQAPGKERELVAAITFSGGITYYADSVKGRFTISRDNAKNTVYLQMNSLKPEDTAVYYCAAADYWFYYGYYLTMDYWGQGTQVTVSS | low polyreactivity
27 | QVQLVESGGGLVQAGGSLRLSFAASGSIFDDNAMGWYRQAPGKERELVAAITSTDSTNYADSVKGRFTISRDNAKNTVYLQMNSLKPEDTAVYYCARDIKHATSYEALYYSDYDYWGQGTQVTVSS | low polyreactivity
28 | QVQLVESGGGLVQAGGSLRLSCAASGGIFGYYAMGWYRPAPGKERELVAAINYSGGSTYYADSVKGRFTISRDNAKNTVYLQMNSLKPEDTAVYYCNAVVRDYTFRYYYWGQGTQVTVSS | low polyreactivity
29 | QVQLVESGGGLVQAGGSLRLSCAASGSIFGDNAMAWYRQAPGKERELVARISSGGNTYYADSVKGRFTISRDNAKNTVYLQMNSLKPEDTAVYYCAAAIKVRYKKFPYYYWGQGTQVTVSS | high polyreactivity
30 | QVQLVESGGGLVQAGGSLRLSCAASGSTFYYNAMGWYRQAPGKERELVAAITFTGGSTYADSVKGRFTISRDNAKNTVYLQLNSLKPEDTAVYYCAATIQGHDYLGTGYDYWGQGTQVTVSS | low polyreactivity
31 | QVQLVESGGRLVQAGGSLRLSCAASGRTFSAYAMGWYRPAPGKERELVARITSVDSTNYADSVKGRFTISRDNAKNTVYLQMNSPKPEDTAVYYCNATFGYPFVDYDDYWGQGTQVTVSS | low polyreactivity
32 | QVQLVESGGGLVQAGGSLRLSCSASGSTIRDYAMGWYRQAPGKERELVAVIDNSGGRTYYADSVKGRFTISRDNAKNTVYLQMNSLKPEDTAVYYCNTRRIAQYGYWGQGTEVTVSS | high polyreactivity
33 | QVQLVESGGGLVQAGGSLRLSCAASGIIFDDNTMGWYRQAPGKERELVAAISSGGRTYYADSVKGRFTISRDNAKYTVYLQMNSLKPEDTAVYYFNVDIYTYIASNGELDYWGQGTQVTVSS | low polyreactivity
34 | QVQLVESGGGLVQAGGSLRLSCADSGSTFLYYAIVWYRQAPGKERELVASITGSGSNTYYADSVKGRFTISRDNAKNTVYLQMNSLKPEDTAVYYCASDPQSDIPSWLWYWGEYDYWGQGTQVTVSS | low polyreactivity
35 | QVQLVESGGGLVQAGGSLRLSCAASGLTFRPYAMGWYRPAPGKERELVAAISTTGGSTYYADSVKGRFTISRDNAKNTVYLQMNSLKPEDTAVYYCAAPTSQRRVLSYRPYGYWGQGTQVTVSS | high polyreactivity
36 | QVQLVESGGGLVQAGGSLRLSCAASGRTLSVYAMGWYSQAPGKEMEFVAAISFSGGSTYYADSVKGRFTISRDNAKNTVYLQMNSQKPEDTAVYYCATAYPEFLSTTVGLLYLDDYWGQGTQVTVSS | low polyreactivity
37 | QVQLVESGGGLVQAGGSLRLSCAASGRTFLPYAMGWYRQPPWKERELVAAISYRGVSTYYADSVKGRFTISRDNAKYSVYLQMNSLKAEDTAVYYCAARSWANYDFWGHGTQVTVSS | high polyreactivity
38 | QVQLVESGGGSVQAGGSLRLSCAASGSTFRYYAMGWYRQAPGKERELVARITSRAGRTYYADSVKGRFTISRDNAKNTVYLQMNSLKPEDTAVYYCNTRDFSGYVHALSLYDYWGQGTQVTVSS | high polyreactivity
39 | QVQLVESGGGLVQAGGSLRLSCAASGRTFRYYVMGWYRQAPGKERELVAAITYSGGGTYYADSVKGRFTISRDNAKNTVYLQMNSLKPEDTAVYYCAAARTYQYDKYYYWGQGTQVTVSS | high polyreactivity
40 | QVQLVESGGGLVQAGGSLRLSCAASGITSWYYAMGWYRQAPGKERELVAAITSDGRTNYADSVMGRFTISRDNAKNTVYLQMNSLKPEDTAVYYCAVARYPYRYDYWGQGTQVTVSS | high polyreactivity
41 | QVQLVESGGGLVQAGGSLRLSCAASGSTFYKYGMGWYRQAPGKERELVAAISGSGDSTYYADSVKGRFTISRDNAKNTVYLQMNSLKPEDTAVYYCNAGPWWYLHEYDYWGQGTQVTVSS | low polyreactivity
42 | QVQLVESGGGLVQAGGSLRLSCAASGFIFLYYAMGWYRQAPGKERELVAAISRSGGRTYYADSVKGRFTISRDNAKNTVYLQMNSLKPEDTAVYYCAADRLGSISGYDYWGQGTQVTVSS | high polyreactivity
43 | QVQLVESGGGLVQAGGSLRLSCAASGRTFLLYAMGWYRQAPGKERELVAAITWGGGSTYYADSVKGRFTISRDNAKNTVYLQMNSLKPEDTAVYYCAADGSWHGYGYWGQGTQVTVSS | low polyreactivity
